Assay results published in patent US20240317868A1 (Boehringer Ingelheim, published 2024).

Target: T1, human IL1RAP (human, UniProt Q9NPH3 21-367, limits assumed, biotinylated in the ELISA screens (site not stated))
T1 construct: also called huIL1RAP; IL1RAP antigen
T1 sequence (looked up): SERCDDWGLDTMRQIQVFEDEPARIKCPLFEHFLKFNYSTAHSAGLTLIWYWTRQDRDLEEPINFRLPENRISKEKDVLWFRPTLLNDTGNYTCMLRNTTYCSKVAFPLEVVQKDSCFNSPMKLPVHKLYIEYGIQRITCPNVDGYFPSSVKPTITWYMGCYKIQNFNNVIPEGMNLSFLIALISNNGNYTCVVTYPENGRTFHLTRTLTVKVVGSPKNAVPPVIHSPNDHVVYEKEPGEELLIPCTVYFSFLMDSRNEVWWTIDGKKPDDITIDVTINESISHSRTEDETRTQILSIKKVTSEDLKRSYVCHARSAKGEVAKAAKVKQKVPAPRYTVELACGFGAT
Test: ELISA of point mutant IgG (heavy chain mutant with the parental chimeric light chain, CHO-E expression), one bar each, concentration not given
Source text: For light chain 13 variants (T25A, E27Q, N28S, N30S, Y50A, K52S, T53Y, A55Q, E56S, H90Q, H91S, G93S and S95P) and 19 heavy chain variants (Y27G, I28T, L30S, T31S, W33Y, M34I, N35S, Q50R, F521, A541, S55L, D56G, S57I, T58A, N61A, E62Q, M63K, K65Q and D66G) were generated separately in the vector pTT5 (See FIG. 3A/B). The light chain mutants were paired with the parental chimeric heavy chain and heavy chain mutants were paired with parental chimeric light chain for expression analysis in CHO-E cells for 7 days. The resulting variants were evaluated for binding in ELISA experiments and compared to the parental chimeric IgG which has mouse variable region but human constant regions. For light chain variants, six point mutants VK-T25A, E27Q, N28S, N30S, K52S and T53Y depicted binding similar to chimeric IgG (+10% control; FIG. 3A) while for heavy chain […] point mutants VH-I28T, L30S, M34I, N35S, D56G, T58A, N61A, E62Q, M63K, K65Q and D66G depicted similar binding as chimeric IgG (+10% control; FIG. 3B).

Row | Binder | binding result
1 | GO11 chimeric IgG, heavy chain point mutant VH-D56G (antibody, V domains shown, Heavy chain mutant paired with the parental chimeric light chain; IgG backbone, expressed in CHO-E) VH: QVHLQQSGPELVRPGTSVKISCEASGYIFLTYWMNWVKQRPGQGLEWIGQIFPASGSTYYNEMFKDKARFTVDKSSSTAYMQFSSLTSEDTAVYFCARSGPYSYYAGGYALDYWGQGTSVTVSS VL: DIQMTQSPASLSASVGETVTITCRTSENINSYLAWYQQKQGKSPQLLVHYAKTLAEGVPSRFSGSGSGTQFSLKINSLKPEDFGSYYCQHHYGTSLTFGAGTKLELK | binds
2 | GO11 chimeric IgG, heavy chain point mutant VH-D66G (antibody, V domains shown, Heavy chain mutant paired with the parental chimeric light chain; IgG backbone, expressed in CHO-E) VH: QVHLQQSGPELVRPGTSVKISCEASGYIFLTYWMNWVKQRPGQGLEWIGQIFPASDSTYYNEMFKGKARFTVDKSSSTAYMQFSSLTSEDTAVYFCARSGPYSYYAGGYALDYWGQGTSVTVSS VL: DIQMTQSPASLSASVGETVTITCRTSENINSYLAWYQQKQGKSPQLLVHYAKTLAEGVPSRFSGSGSGTQFSLKINSLKPEDFGSYYCQHHYGTSLTFGAGTKLELK | binds
3 | GO11 chimeric IgG, heavy chain point mutant VH-E62Q (antibody, V domains shown, Heavy chain mutant paired with the parental chimeric light chain; IgG backbone, expressed in CHO-E) VH: QVHLQQSGPELVRPGTSVKISCEASGYIFLTYWMNWVKQRPGQGLEWIGQIFPASDSTYYNQMFKDKARFTVDKSSSTAYMQFSSLTSEDTAVYFCARSGPYSYYAGGYALDYWGQGTSVTVSS VL: DIQMTQSPASLSASVGETVTITCRTSENINSYLAWYQQKQGKSPQLLVHYAKTLAEGVPSRFSGSGSGTQFSLKINSLKPEDFGSYYCQHHYGTSLTFGAGTKLELK | binds
4 | GO11 chimeric IgG, heavy chain point mutant VH-I28T (antibody, V domains shown, Heavy chain mutant paired with the parental chimeric light chain; IgG backbone, expressed in CHO-E) VH: QVHLQQSGPELVRPGTSVKISCEASGYTFLTYWMNWVKQRPGQGLEWIGQIFPASDSTYYNEMFKDKARFTVDKSSSTAYMQFSSLTSEDTAVYFCARSGPYSYYAGGYALDYWGQGTSVTVSS VL: DIQMTQSPASLSASVGETVTITCRTSENINSYLAWYQQKQGKSPQLLVHYAKTLAEGVPSRFSGSGSGTQFSLKINSLKPEDFGSYYCQHHYGTSLTFGAGTKLELK | binds
5 | GO11 chimeric IgG, heavy chain point mutant VH-K65Q (antibody, V domains shown, Heavy chain mutant paired with the parental chimeric light chain; IgG backbone, expressed in CHO-E) VH: QVHLQQSGPELVRPGTSVKISCEASGYIFLTYWMNWVKQRPGQGLEWIGQIFPASDSTYYNEMFQDKARFTVDKSSSTAYMQFSSLTSEDTAVYFCARSGPYSYYAGGYALDYWGQGTSVTVSS VL: DIQMTQSPASLSASVGETVTITCRTSENINSYLAWYQQKQGKSPQLLVHYAKTLAEGVPSRFSGSGSGTQFSLKINSLKPEDFGSYYCQHHYGTSLTFGAGTKLELK | binds
6 | GO11 chimeric IgG, heavy chain point mutant VH-L30S (antibody, V domains shown, Heavy chain mutant paired with the parental chimeric light chain; IgG backbone, expressed in CHO-E) VH: QVHLQQSGPELVRPGTSVKISCEASGYIFSTYWMNWVKQRPGQGLEWIGQIFPASDSTYYNEMFKDKARFTVDKSSSTAYMQFSSLTSEDTAVYFCARSGPYSYYAGGYALDYWGQGTSVTVSS VL: DIQMTQSPASLSASVGETVTITCRTSENINSYLAWYQQKQGKSPQLLVHYAKTLAEGVPSRFSGSGSGTQFSLKINSLKPEDFGSYYCQHHYGTSLTFGAGTKLELK | binds
7 | GO11 chimeric IgG, heavy chain point mutant VH-M34I (antibody, V domains shown, Heavy chain mutant paired with the parental chimeric light chain; IgG backbone, expressed in CHO-E) VH: QVHLQQSGPELVRPGTSVKISCEASGYIFLTYWINWVKQRPGQGLEWIGQIFPASDSTYYNEMFKDKARFTVDKSSSTAYMQFSSLTSEDTAVYFCARSGPYSYYAGGYALDYWGQGTSVTVSS VL: DIQMTQSPASLSASVGETVTITCRTSENINSYLAWYQQKQGKSPQLLVHYAKTLAEGVPSRFSGSGSGTQFSLKINSLKPEDFGSYYCQHHYGTSLTFGAGTKLELK | binds
8 | GO11 chimeric IgG, heavy chain point mutant VH-M63K (antibody, V domains shown, Heavy chain mutant paired with the parental chimeric light chain; IgG backbone, expressed in CHO-E) VH: QVHLQQSGPELVRPGTSVKISCEASGYIFLTYWMNWVKQRPGQGLEWIGQIFPASDSTYYNEKFKDKARFTVDKSSSTAYMQFSSLTSEDTAVYFCARSGPYSYYAGGYALDYWGQGTSVTVSS VL: DIQMTQSPASLSASVGETVTITCRTSENINSYLAWYQQKQGKSPQLLVHYAKTLAEGVPSRFSGSGSGTQFSLKINSLKPEDFGSYYCQHHYGTSLTFGAGTKLELK | binds
9 | GO11 chimeric IgG, heavy chain point mutant VH-N35S (antibody, V domains shown, Heavy chain mutant paired with the parental chimeric light chain; IgG backbone, expressed in CHO-E) VH: QVHLQQSGPELVRPGTSVKISCEASGYIFLTYWMSWVKQRPGQGLEWIGQIFPASDSTYYNEMFKDKARFTVDKSSSTAYMQFSSLTSEDTAVYFCARSGPYSYYAGGYALDYWGQGTSVTVSS VL: DIQMTQSPASLSASVGETVTITCRTSENINSYLAWYQQKQGKSPQLLVHYAKTLAEGVPSRFSGSGSGTQFSLKINSLKPEDFGSYYCQHHYGTSLTFGAGTKLELK | binds
10 | GO11 chimeric IgG, heavy chain point mutant VH-N61A (antibody, V domains shown, Heavy chain mutant paired with the parental chimeric light chain; IgG backbone, expressed in CHO-E) VH: QVHLQQSGPELVRPGTSVKISCEASGYIFLTYWMNWVKQRPGQGLEWIGQIFPASDSTYYAEMFKDKARFTVDKSSSTAYMQFSSLTSEDTAVYFCARSGPYSYYAGGYALDYWGQGTSVTVSS VL: DIQMTQSPASLSASVGETVTITCRTSENINSYLAWYQQKQGKSPQLLVHYAKTLAEGVPSRFSGSGSGTQFSLKINSLKPEDFGSYYCQHHYGTSLTFGAGTKLELK | binds
11 | GO11 chimeric IgG, heavy chain point mutant VH-T58A (antibody, V domains shown, Heavy chain mutant paired with the parental chimeric light chain; IgG backbone, expressed in CHO-E) VH: QVHLQQSGPELVRPGTSVKISCEASGYIFLTYWMNWVKQRPGQGLEWIGQIFPASDSAYYNEMFKDKARFTVDKSSSTAYMQFSSLTSEDTAVYFCARSGPYSYYAGGYALDYWGQGTSVTVSS VL: DIQMTQSPASLSASVGETVTITCRTSENINSYLAWYQQKQGKSPQLLVHYAKTLAEGVPSRFSGSGSGTQFSLKINSLKPEDFGSYYCQHHYGTSLTFGAGTKLELK | binds
12 | VH-Y27G (antibody, V domains shown, germlining point mutant, paired with the parental chimeric light chain; also called GO11 chimeric IgG, heavy chain point mutant Y27G; copies: 2 + 2) VH: QVHLQQSGPELVRPGTSVKISCEASGGIFLTYWMNWVKQRPGQGLEWIGQIFPASDSTYYNEMFKDKARFTVDKSSSTAYMQFSSLTSEDTAVYFCARSGPYSYYAGGYALDYWGQGTSVTVSS VL: DIQMTQSPASLSASVGETVTITCRTSENINSYLAWYQQKQGKSPQLLVHYAKTLAEGVPSRFSGSGSGTQFSLKINSLKPEDFGSYYCQHHYGTSLTFGAGTKLELKR | binds
13 | VH-F52I (antibody, V domains shown, germlining point mutant, paired with the parental chimeric light chain; also called GO11 chimeric IgG, heavy chain point mutant F52I; copies: 2 + 2) VH: QVHLQQSGPELVRPGTSVKISCEASGYIFLTYWMNWVKQRPGQGLEWIGQIIPASDSTYYNEMFKDKARFTVDKSSSTAYMQFSSLTSEDTAVYFCARSGPYSYYAGGYALDYWGQGTSVTVSS VL: DIQMTQSPASLSASVGETVTITCRTSENINSYLAWYQQKQGKSPQLLVHYAKTLAEGVPSRFSGSGSGTQFSLKINSLKPEDFGSYYCQHHYGTSLTFGAGTKLELKR | binds
14 | VH-Q50R (antibody, V domains shown, germlining point mutant, paired with the parental chimeric light chain; also called GO11 chimeric IgG, heavy chain point mutant Q50R; copies: 2 + 2) VH: QVHLQQSGPELVRPGTSVKISCEASGYIFLTYWMNWVKQRPGQGLEWIGRIFPASDSTYYNEMFKDKARFTVDKSSSTAYMQFSSLTSEDTAVYFCARSGPYSYYAGGYALDYWGQGTSVTVSS VL: DIQMTQSPASLSASVGETVTITCRTSENINSYLAWYQQKQGKSPQLLVHYAKTLAEGVPSRFSGSGSGTQFSLKINSLKPEDFGSYYCQHHYGTSLTFGAGTKLELKR | binds
15 | VH-S55L (antibody, V domains shown, germlining point mutant, paired with the parental chimeric light chain; also called GO11 chimeric IgG, heavy chain point mutant S55L; copies: 2 + 2) VH: QVHLQQSGPELVRPGTSVKISCEASGYIFLTYWMNWVKQRPGQGLEWIGQIFPALDSTYYNEMFKDKARFTVDKSSSTAYMQFSSLTSEDTAVYFCARSGPYSYYAGGYALDYWGQGTSVTVSS VL: DIQMTQSPASLSASVGETVTITCRTSENINSYLAWYQQKQGKSPQLLVHYAKTLAEGVPSRFSGSGSGTQFSLKINSLKPEDFGSYYCQHHYGTSLTFGAGTKLELKR | no binding
16 | VH-S57I (antibody, V domains shown, germlining point mutant, paired with the parental chimeric light chain; also called GO11 chimeric IgG, heavy chain point mutant S57I; copies: 2 + 2) VH: QVHLQQSGPELVRPGTSVKISCEASGYIFLTYWMNWVKQRPGQGLEWIGQIFPASDITYYNEMFKDKARFTVDKSSSTAYMQFSSLTSEDTAVYFCARSGPYSYYAGGYALDYWGQGTSVTVSS VL: DIQMTQSPASLSASVGETVTITCRTSENINSYLAWYQQKQGKSPQLLVHYAKTLAEGVPSRFSGSGSGTQFSLKINSLKPEDFGSYYCQHHYGTSLTFGAGTKLELKR | binds
17 | VH-W33Y (antibody, V domains shown, germlining point mutant, paired with the parental chimeric light chain; also called GO11 chimeric IgG, heavy chain point mutant W33Y; copies: 2 + 2) VH: QVHLQQSGPELVRPGTSVKISCEASGYIFLTYYMNWVKQRPGQGLEWIGQIFPASDSTYYNEMFKDKARFTVDKSSSTAYMQFSSLTSEDTAVYFCARSGPYSYYAGGYALDYWGQGTSVTVSS VL: DIQMTQSPASLSASVGETVTITCRTSENINSYLAWYQQKQGKSPQLLVHYAKTLAEGVPSRFSGSGSGTQFSLKINSLKPEDFGSYYCQHHYGTSLTFGAGTKLELKR | binds
